Source: PMC6376029, “Diversity within the adenovirus fiber knob hypervariable loops influences primary receptor interactions” (Nature Communications, 2019)

What was measured:
[1] = molecular target: HAdV-D48 fiber-knob protein (human adenovirus D serotype 48); assay: crystal structure; sitting-drop vapour diffusion, 18 C, protein about 7.5 mg/ml in 10 mM Tris pH 8.0, 30 mM NaCl; data at 100 K, Diamond I04
[2] = molecular target: Recombinant Human CXADR Fc Chimera Protein (CAR) (human) (UniProt P78310); assay: SPR; BIAcore 3000, CM5 chip, about 5000 RU of receptor (CD46, CAR or DSG2) amine-coupled; fiber-knob injected; single cycle kinetics, top concentration around 200 uM with four 1:3 dilutions; 25 C, PBS, 30 ul/min
[3] = molecular target: HAdV-D26 fiber-knob protein (human adenovirus D serotype 26); assay: crystal structure; sitting-drop vapour diffusion, 18 C, protein about 7.5 mg/ml in 10 mM Tris pH 8.0, 30 mM NaCl; data at 100 K, Diamond I04
[4] = molecular target: Recombinant Human CD46 Protein (His Tag) (human) (UniProt P15529); assay: SPR; BIAcore 3000, CM5 chip, about 5000 RU of receptor amine-coupled; equilibrium binding analysis of HAdV-D26K (367 uM) and HAdV-B3K (3 uM as printed), 5x 1:3 serial dilutions; 1:1 Langmuir fit; 25 C, PBS, 30 ul/min
[5] = molecular target: Recombinant Human Desmoglein-2 Fc Chimera Protein (human) (UniProt Q14126); assay: as above
Recombinant Human Desmoglein-2 Fc Chimera Protein (human), sequence (Q14126 50-609, change not shown): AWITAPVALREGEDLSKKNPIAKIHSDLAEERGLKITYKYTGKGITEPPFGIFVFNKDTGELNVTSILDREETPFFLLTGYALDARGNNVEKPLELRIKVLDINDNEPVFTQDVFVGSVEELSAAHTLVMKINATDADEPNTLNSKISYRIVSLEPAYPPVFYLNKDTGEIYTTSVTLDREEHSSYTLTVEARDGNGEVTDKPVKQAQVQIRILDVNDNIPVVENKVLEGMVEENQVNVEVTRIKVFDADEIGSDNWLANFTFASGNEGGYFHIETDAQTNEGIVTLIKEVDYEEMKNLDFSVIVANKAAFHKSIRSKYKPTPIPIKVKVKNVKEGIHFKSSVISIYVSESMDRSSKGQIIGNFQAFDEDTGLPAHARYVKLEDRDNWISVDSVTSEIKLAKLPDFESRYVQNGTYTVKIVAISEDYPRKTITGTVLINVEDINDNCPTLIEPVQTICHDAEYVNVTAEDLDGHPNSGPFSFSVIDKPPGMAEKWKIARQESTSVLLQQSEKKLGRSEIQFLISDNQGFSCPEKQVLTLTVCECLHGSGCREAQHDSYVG

[6] = molecular target: T1, Recombinant Human CD46 Protein (His Tag) (human, UniProt P15529 35-343); assay: SPR
T1 chain: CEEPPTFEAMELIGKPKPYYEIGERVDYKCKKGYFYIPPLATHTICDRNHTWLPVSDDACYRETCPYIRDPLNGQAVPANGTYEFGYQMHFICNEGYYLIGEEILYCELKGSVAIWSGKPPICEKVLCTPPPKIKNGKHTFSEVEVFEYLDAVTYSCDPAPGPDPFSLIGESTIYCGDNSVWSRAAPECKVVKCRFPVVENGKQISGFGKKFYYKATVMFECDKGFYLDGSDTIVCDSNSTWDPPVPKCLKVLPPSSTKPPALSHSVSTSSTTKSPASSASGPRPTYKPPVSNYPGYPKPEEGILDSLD

[7] = molecular target: T1, Recombinant Human CD46 Protein (His Tag); assay: SPR
[8] = molecular target: T2, Recombinant Human CXADR Fc Chimera Protein (CAR) (human, UniProt P78310); assay: SPR
T2 chain: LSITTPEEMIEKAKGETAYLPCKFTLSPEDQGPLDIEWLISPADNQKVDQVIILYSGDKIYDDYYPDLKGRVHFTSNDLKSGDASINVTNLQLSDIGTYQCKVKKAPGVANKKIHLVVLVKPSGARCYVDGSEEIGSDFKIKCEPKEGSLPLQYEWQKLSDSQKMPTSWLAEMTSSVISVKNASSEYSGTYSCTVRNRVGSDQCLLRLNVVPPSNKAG

[9] = molecular target: T2, Recombinant Human CXADR Fc Chimera …; assay: SPR
[10] = molecular target: T3, Recombinant Human CXADR Fc Chimera Protein (CAR) (human, UniProt P78310); assay: SPR; BIAcore 3000, CM5 chip, about 5000 RU of receptor (CD46, CAR or DSG2) amine-coupled; fiber-knob injected; single cycle kinetics, top concentration around 200 uM with four 1:3 dilutions; 25 C, PBS, 30 ul/min; conditions: both partners purified
T3 construct: human Coxsackie and Adenovirus Receptor (CXADR) part of a commercial Fc chimera; Probably the extracellular domain fused to human IgG1 Fc (recalled); source: bought: R&D Systems
T3 sequence: T2 chain

HAdV-D48 fiber-knob protein (domain or fragment)
stoichiometry N [1]: 3 | fold higher affinity than HAdV-D26K [2]: 2 fold

HAdV-D26 fiber-knob protein (domain or fragment)
stoichiometry N [3]: 3 | fold weaker affinity (KD) than HAdV-B35K [4]: > 1500 fold

HAdV-B3 fiber-knob protein (from UniProt P04501 1-319) (domain or fragment)
Kd [5]: 66.9 µM

B1: HAdV-B35 fiber-knob protein (domain or fragment)
chain: TLWTGINPPPNCQIVENTNTNDGKLTLVLVKNGGLVNGYVSLVGVSDTVNQMFTQKTANIQLRLYFDSSGNLLTEESDLKIPLKNKSSTATSETVASSKAFMPSTTAYPFNTTTRDSENYIHGICYYMTSYDRSLFPLNISIMLNSRMISSNVAYAIQFEWNLNASESPESNIATLTTSPFFFSYITEDDN
Kd [6]: 0.027 µM | koff [7]: 0.032 s⁻¹

B2: HAdV-D48 fiber-knob protein (domain or fragment)
chain: DKLTLWTTPDPSPNCKIDQDKDSKLTFVLTKCGSQILANMSLLVVKGKFSMINNKVNGTDDYKKFTIKLLFDEKGVLLKDSSLDKEYWNYRSNNNNVGSAYEEAVGFMPSTTAYPKPPTPPTNPTTPLEKSQAKNKYVSNVYLGGQAGNPVATTVSFNKETGCTYSITFDFAWNKTYENVQFDSSFLTFSYIAQE
Kd [8]: 9.3 µM | koff [9]: 0.0024 s⁻¹

B3: HAdV-D26 fiber-knob protein (domain or fragment)
chain: RRTLWTTPDTSPNCKMSTEKDSKLTLTLTKCGSQVLGNVSLLAVTGEYHQMTATTKKDVKISLLFDENGILLPSSSLSKDYWNYRSDDSIVSQKYNNAVPFMPNLTAYPKPSAQNAKNYSRTKIISNVYLGALTYQPVIITIAFNQETENGCAYSITFTFTWQKDYSAQQFDVTSFTFSYLTQE
Kd [8]: 21 µM

B4: HAdV-C5 fiber-knob protein (domain or fragment)
chain: KNNDKLTLWTTPAPSPNCRLNAEKDAKLTLVLTKCGSQILATVSVLAVKGSLAPISGTVQSAHLIIRFDENGVLLNNSFLDPEYWNFRNGDLTEGTAYTNAVGFMPNLSAYPKSHGKTAKSNIVSQVYLNGDKTKPVTLTITLNGTQETGDTTPSAYSMSFSWDWSGHNYINEIFATSSYTFSYIAQE
notes: fiber-knob domain of the fiber protein (pIV) of human adenovirus species C serotype 5; Vector pQE-30 probably adds an N-terminal His6 tag (surmised); also called HAdV-C5K; HAdV-C5 fiber-knob domain
koff [9]: 0.0016 s⁻¹ | Kd [10]: 0.00076 µM
